Test results published in the domain aggregation screens of Martell et al. (2025).

Assay: soluble fraction after stress (log2 fold change); higher = more stays soluble; pooled small domains, quantitative proteomics
Conditions: stress: pH 4
How it was run: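 With high-throughput quantitative proteomics, pooled custom libraries of small protein domains were measured after pH 4 stress. Each domain's soluble amount after the stress gives a fold change taken as aggregation propensity. Higher log2 values mean more of the domain stayed soluble.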
In the case of “HMDKSNEVLMNHYRKQEINQAKKRLEEEKMSIIQVLQLTNKEVITTDELLEALYISKEQLLDEIINTTQ”, the “soluble fraction (log2)” value is reported as -1.02. With “HMSDGDFLQKIAEEILAQFPDKVKEYQKGKKGLIGFFMGELMKRSKGKADPKVATRILEEILSEKNGSS” the “soluble fraction (log2)” value was -0.609. In the case of “HMTLDEDYFYYTLKAKEGYYRLYKKLGVDRKIIDSLNPNLKEMGLQVGMVIRVPKSQTSDLSVKNSLLVE”, the “soluble fraction (log2)” value is reported as -0.61. For “HMRIWTPEMIKEYIISSNGKEPLNSHYYSTNHPSIYAAAERIFGSWGNAINAAGLDYNAIRKYK”, the “soluble fraction (log2)” value was -0.0687. For “HMQAPVDPIVLGKMGSSYGIRGWLRVFSSTEDAESIFDYQPWFIQKAGQWQQVQLESWKHHNQDMIIKLN”, the “soluble fraction (log2)” value was 0.179. For “HMGARWPIQDRPLTATEAAAVRRMYAGGLPHGRSKNSVITEVWGDLSNKPKRLDWLNQALEGGA”, the “soluble fraction (log2)” value was 0.357. In the case of “HMKKEQVIVPNVVGDTYDVALRKLTDAKLKVGETFPADREGHQGVIEKQSPAAGETVDEDTPVALFFKV”, the “soluble fraction (log2)” value is reported as -0.384. In the case of “HMGERMELTLDNPREAIPVLDAMGFANYQVVDKEHIHIFERLNESALVNMELAKAGIPVKGISITSE”, the “soluble fraction (log2)” value is reported as -0.523. With “HMRYVVQVATFSSKNNAIRAADDLAGFVVVSNGYYRVRTGPYADRGEANAALAKARKAGYTDAFVDTS” the “soluble fraction (log2)” value was 0.0704. With “HMDLTKLFDHDSEYGKSYVFGKITDEMIARAEQTLGYRMPASYIELLKVQNGGMISDELDESWLTTIYGIG” the “soluble fraction (log2)” value was -0.932. With “HMQPAGEGAILRYLSSGAVKGIGPVMAREIVRRFGTDTFRVMEQEPEKLLKVKGITEQRLQTIMESYQD” the “soluble fraction (log2)” value was 0.145. With “HMKTGNPYAQRNTADMYNYGRGIEKDSYLAFVWYFAAYKQGNDNAKPQIDSITASGHLSPNQQLHAKIE” the “soluble fraction (log2)” value was -0.304. With “HMQENFYMILESEERRVLDVLVADQPESVATFLKLVSPFPNYKIILEHINEKALDFYEETVI” the “soluble fraction (log2)” value was -0.666. In the case of “HMPANVELLRTFTNKTGTKIKARIVAVSDNKVKLIRDDSKKFIVPIDSLSEEDQKYLKDWIANEVGEQ”, the “soluble fraction (log2)” value is reported as 0.133. In the case of “HMTGSETLQDIFAHLEAGTVRTALSLIPRLDAVEYEQNRQRIAELAGVRPSALDDLRKQAKREEN”, the “soluble fraction (log2)” value is reported as -0.434. With “HMVDPRWETPDENLAEQIKSVMPVMWVYDREAKSFVERPAIDFSFSIFERTTLYIYDKDGNEIGFAR” the “soluble fraction (log2)” value was 0.0599. With “HMFGNTGETSGTGVAFTRSPVDGENKIFGEFLVNAQGEDVVAGIRTPQPISEMEQAFPEVYSKFESVAEIL” the “soluble fraction (log2)” value was -0.305. For “HMRLSPTMVETLIAMLNRNAYPAYENNSRTFASLEERGLIQPDIEGNWSLTDTGHQTALKLLK”, the “soluble fraction (log2)” value was 0.0279. In the case of “HMDQHPYGEDSFRGDNPPAGFDIKGNEDSMKFHEPSSPWYGRTIAEVWFRSAAAAEAAGFVNAV”, the “soluble fraction (log2)” value is reported as -0.0254. With “HMDFEEGAVKWFNTKKGYGFITRDQGDDIFVHFRNIKAQSRRSLTDGERVTFVVTEGDKGLQADHVSPV” the “soluble fraction (log2)” value was -0.886. With “HMTNALDMMKTMDSDAYTKYQKISKESSNEDRQLNELKYITNWYAGAVKKNPSMVDDYEKQKEADS” the “soluble fraction (log2)” value was 0.162. For “HMRGLFTVYMVGEKASRVGELDEEMVYESRIGDVFALGATSWRIEEITHDRVLVSPAYGQPGRLPFWH”, the “soluble fraction (log2)” value was -1.72. For “HMNEIDLEAAKRIALQNAGVESADAAFTKAQLDYDDGVAEYEIEFVAGSTKYEYEISAANGTVLKSSKESV”, the “soluble fraction (log2)” value was 0.243. For “HMPLQYRLTVQPTPTNARVRLVNSAFTYRPGVALPPGSYIVEVSSSGYGAKRQAVQIADGDVTVPVELEKI”, the “soluble fraction (log2)” value was 0.138. In the case of “HMLEYIEPRTAVQIHGIKAKPELNGKRGMVMGYAPERMRYRVRIDVGEGTGGKESEEVYLKPENVIAVK”, the “soluble fraction (log2)” value is reported as 0.101. In the case of “HMSNMESLIGREATVIEMIPAEDVGRVKIDGDEWQAVLAREDDNEPRRDIQVGEKVIIVSYDSIILTVKTK”, the “soluble fraction (log2)” value is reported as -1.02. For “HMGLIDNLTRIMEKKNISAYQLEKAGIVKQTTFTSWKKGTQPALDKIIKIMQYIEVTPNELFGY”, the “soluble fraction (log2)” value was -0.456. For “HMKEEVEILGGKATIYTNDYGVWQFRLWLTTDNKYVRKSLRTKVKDYAITEGEKLYIQIRSDIEKGIKYY”, the “soluble fraction (log2)” value was -0.077. For “HMDLKTNSQLINELEKKIKRPFDREIKNYLNKNLSTDRMISNNEIDKIILFYSGNNEIPNIEKISLILNDN”, the “soluble fraction (log2)” value was 0.0193. In the case of “HMVISAKRMQDRRDSILDAAREAFARAGFEGTSIADIARRAGVSDGLVYRYFASKRDLLNAVLTA”, the “soluble fraction (log2)” value is reported as 0.216. With “HMAVLFFVKRGERILGPTRLADLFQHAASGRLRANDLVGESPKGPWLPARQLDELEDAWASSRDATEAAAA” the “soluble fraction (log2)” value was -0.0753. With “HMPDLQKAIDDLLQVVDKRLNTSFESILNEVNSEKEAVAFFLALLEAVRWGFVKASQSDEGIKIEK” the “soluble fraction (log2)” value was -0.387. With “HMTGENWAERSRQLAAAGLLVLGKEAQEKIASLPNLIPLIEAAAASDTRLLNAQTIDELLSFVPTEETI” the “soluble fraction (log2)” value was -0.98. With “HMGASVGEVESVKTASEIYTAAAGKIVAVNDAVAKDPSLVNSDPYGNGWLVKLEIADLSAINA” the “soluble fraction (log2)” value was -0.304. With “HMGTVQSVDRALLLLSEIGREPGGLVDLSTRVRLATSTTGRILATLEHAGAVVRGDDGIYHIGPLVHGMVS” the “soluble fraction (log2)” value was 0.0724. For “HMIIMVNLYQIWDKEVQGLDSVGAKPEQIEARRQAIAAHFESKARQAGMSSKDIYATLDNFDTYSRQKTS”, the “soluble fraction (log2)” value was -1.3. With “HMPLAQRFGLTVAQARVLDLLAEGRSNRQIGELLGLTEGTVKIHVSAIMKAMGVSNRAEAALMANRKR” the “soluble fraction (log2)” value was -0.29.
